Test results published in patent US20170081400A1 (CEPHALON, published 2017).

T1: human TL1A extracellular domain with N-terminal HIS and FLAG tag (human, UniProt O95150 72-251)
T1 construct: the whole entry is named
T1 sequence: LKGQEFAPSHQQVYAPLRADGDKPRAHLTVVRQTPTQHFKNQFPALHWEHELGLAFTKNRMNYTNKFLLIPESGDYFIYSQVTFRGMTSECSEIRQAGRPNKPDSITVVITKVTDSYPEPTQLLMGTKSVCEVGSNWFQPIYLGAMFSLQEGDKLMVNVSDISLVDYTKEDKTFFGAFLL

T2: human TL1A extracellular domain with N-terminal HIS and FLAG tag (human) (UniProt O95150)
T2 sequence: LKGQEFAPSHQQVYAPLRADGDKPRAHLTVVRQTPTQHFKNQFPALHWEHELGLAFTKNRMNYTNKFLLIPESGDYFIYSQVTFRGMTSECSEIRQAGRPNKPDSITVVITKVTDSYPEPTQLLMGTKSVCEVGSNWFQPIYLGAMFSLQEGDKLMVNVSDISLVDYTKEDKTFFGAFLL

B1: 320-443 (antibody, human IgG1, name in Kabat numbering, V domains shown)
VH: QVQLVQSGAEVKKPGASVKVSCKASGYTFTSKDINWVRQAPGQGLEWMGWLNPNSGNTGYAQKFQGRVTMTADRSTSTAYMELSSLRSEDTAVYYCAREVPETAAFEYWGQGTLVTVSS
VL: QSVLTQPPSVSGAPGQRVTISCTSSSSDIGAGLGVHWYQQLPGTAPKLLIEGYYNRPSGVPDRFSGSKSGTSASLTITGLLPEDEGDYYCQSYDGTLSALFGGGTKLTVLG
notes: human IgG1, lambda
B2: 320-476 (antibody, human IgG1, name in Kabat numbering, V domains shown)
VH: QVQLVQSGAEVKKPGASVKVSCKASGKTFTSYDINWVRQAPGQGLEWMGWLNPNSGNTGYAQKFQGRVTMTADRSTSTAYMELSSLRSEDTAVYYCAREVPETAAFEYWGQGTLVTVSS
VL: QSVLTQPPSVSGAPGQRVTISCTSSSSDIGAGLGVHWYQQLPGTAPKLLIEGYYNRPSGVPDRFSGSKSGTSASLTITGLLPEDEGDYYCQSYDGTLSALFGGGTKLTVLG
notes: human IgG1, lambda
B3: 320-479 (antibody, human IgG1, name in Kabat numbering, V domains shown)
VH: QVQLVQSGAEVKKPGASVKVSCKASGYTFTSYDINWVRQAPGQGLEWMGWLNPNSGNTGYWQKFQGRVTMTADRSTSTAYMELSSLRSEDTAVYYCAREVPETAAFEYWGQGTLVTVSS
VL: QSVLTQPPSVSGAPGQRVTISCTSSSSDIGAGLGVHWYQQLPGTAPKLLIEGYYNRPSGVPDRFSGSKSGTSASLTITGLLPEDEGDYYCQSYDGTLSALFGGGTKLTVLG
notes: human IgG1, lambda
B4: 320-464 (antibody, human IgG1, name in Kabat numbering, V domains shown)
VH: QVQLVQSGAEVKKPGASVKVSCKASGYTFTSYDISWVRQAPGQGLEWMGWLNPNSGNTGYAQKFQGRVTMTADRSTSTAYMELSSLRSEDTAVYYCAREVPETAAFEYWGQGTLVTVSS
VL: QSVLTQPPSVSGAPGQRVTISCTSSSSDIGAGLGVHWYQQLPGTAPKLLIEGYYNRPSGVPDRFSGSKSGTSASLTITGLLPEDEGDYYCQSYDGTLSALFGGGTKLTVLG
notes: human IgG1, lambda
B5: 320-467 (antibody, human IgG1, name in Kabat numbering, V domains shown)
VH: QVQLVQSGAEVKKPGASVKVSCKASGYTFTSYDIHWVRQAPGQGLEWMGWLNPNSGNTGYAQKFQGRVTMTADRSTSTAYMELSSLRSEDTAVYYCAREVPETAAFEYWGQGTLVTVSS
VL: QSVLTQPPSVSGAPGQRVTISCTSSSSDIGAGLGVHWYQQLPGTAPKLLIEGYYNRPSGVPDRFSGSKSGTSASLTITGLLPEDEGDYYCQSYDGTLSALFGGGTKLTVLG
notes: human IgG1, lambda
B6: 320-469 (antibody, human IgG1, name in Kabat numbering, V domains shown)
VH: QVQLVQSGAEVKKPGASVKVSCKASGYTFTSYDILWVRQAPGQGLEWMGWLNPNSGNTGYAQKFQGRVTMTADRSTSTAYMELSSLRSEDTAVYYCAREVPETAAFEYWGQGTLVTVSS
VL: QSVLTQPPSVSGAPGQRVTISCTSSSSDIGAGLGVHWYQQLPGTAPKLLIEGYYNRPSGVPDRFSGSKSGTSASLTITGLLPEDEGDYYCQSYDGTLSALFGGGTKLTVLG
notes: human IgG1, lambda
B7: 320-445 (antibody, human IgG1, name in Kabat numbering, V domains shown)
VH: QVQLVQSGAEVKKPGASVKVSCKASGYTFTSWDINWVRQAPGQGLEWMGWLNPNSGNTGYAQKFQGRVTMTADRSTSTAYMELSSLRSEDTAVYYCAREVPETAAFEYWGQGTLVTVSS
VL: QSVLTQPPSVSGAPGQRVTISCTSSSSDIGAGLGVHWYQQLPGTAPKLLIEGYYNRPSGVPDRFSGSKSGTSASLTITGLLPEDEGDYYCQSYDGTLSALFGGGTKLTVLG
notes: human IgG1, lambda
B8: 320-473 (antibody, human IgG1, name in Kabat numbering, V domains shown)
VH: QVQLVQSGAEVKKPGASVKVSCKASGYTFTSYDINWVRQAPGQGLEWMGWLNPNSGNTGYAQKFQGRVTMTADRSTSTAYMELSSLRSEDTAVYYCAREVPETAAFEYWGQGTLVTVSS
VL: QSVLTQPPSVSGAPGQRVTISCTSSSSDIGAGLGVHWYQQLPGTAPKLLIEGYYNRPSGVPDRFSGSKSGTSASLTITGLLPEDEGDYYCQSDDGTLSALFGGGTKLTVLG
notes: human IgG1, lambda
B9: 320-490 (antibody, human IgG1, name in Kabat numbering, V domains shown)
VH: QVQLVQSGAEVKKPGASVKVSCKASGYTFTSYDINWVRQAPGQGLEWMGYLNPNSGNTGYAQKFQGRVTMTADRSTSTAYMELSSLRSEDTAVYYCAREVPETAAFEYWGQGTLVTVSS
VL: QSVLTQPPSVSGAPGQRVTISCTSSSSDIGAGLGVHWYQQLPGTAPKLLIEGYYNRPSGVPDRFSGSKSGTSASLTITGLLPEDEGDYYCQSYDGTLSALFGGGTKLTVLG
notes: human IgG1, lambda
B10: 320-478 (antibody, human IgG1, name in Kabat numbering, V domains shown)
VH: QVQLVQSGAEVKKPGASVKVSCKASGYTFTSYDINWVRQAPGQGLEWMGWLNPNSGNTGYLQKFQGRVTMTADRSTSTAYMELSSLRSEDTAVYYCAREVPETAAFEYWGQGTLVTVSS
VL: QSVLTQPPSVSGAPGQRVTISCTSSSSDIGAGLGVHWYQQLPGTAPKLLIEGYYNRPSGVPDRFSGSKSGTSASLTITGLLPEDEGDYYCQSYDGTLSALFGGGTKLTVLG
notes: human IgG1, lambda
B11: 320-472 (antibody, human IgG1, name in Kabat numbering, V domains shown)
VH: QVQLVQSGAEVKKPGASVKVSCKASGYTFTSYDINWVRQAPGQGLEWMGWLNPNSGNTGYAQKFQGRVTMTADRSTSTAYMELSSLRSEDTAVYYCAREVPETAAFEYWGQGTLVTVSS
VL: QSVLTQPPSVSGAPGQRVTISCTSSSSDIGAGLGVHWYQQLPGTAPKLLIEGYYNRPSGVPDRFSGSKSGTSASLTITGLLPEDEGDYYCQLYDGTLSALFGGGTKLTVLG
notes: human IgG1, lambda
B12: 320-477 (antibody, human IgG1, name in Kabat numbering, V domains shown)
VH: QVQLVQSGAEVKKPGASVKVSCKASGYTFTHYDINWVRQAPGQGLEWMGWLNPNSGNTGYAQKFQGRVTMTADRSTSTAYMELSSLRSEDTAVYYCAREVPETAAFEYWGQGTLVTVSS
VL: QSVLTQPPSVSGAPGQRVTISCTSSSSDIGAGLGVHWYQQLPGTAPKLLIEGYYNRPSGVPDRFSGSKSGTSASLTITGLLPEDEGDYYCQSYDGTLSALFGGGTKLTVLG
notes: human IgG1, lambda
B13: 320-463 (antibody, human IgG1, name in Kabat numbering, V domains shown)
VH: QVQLVQSGAEVKKPGASVKVSCKASGYTFTSYDIAWVRQAPGQGLEWMGWLNPNSGNTGYAQKFQGRVTMTADRSTSTAYMELSSLRSEDTAVYYCAREVPETAAFEYWGQGTLVTVSS
VL: QSVLTQPPSVSGAPGQRVTISCTSSSSDIGAGLGVHWYQQLPGTAPKLLIEGYYNRPSGVPDRFSGSKSGTSASLTITGLLPEDEGDYYCQSYDGTLSALFGGGTKLTVLG
notes: human IgG1, lambda
B14: 320-480 (antibody, human IgG1, name in Kabat numbering, V domains shown)
VH: QVQLVQSGAEVKKPGASVKVSCKASGYTFTSYDINWVRQAPGQGLEWMGWLNPNSGNTGYYQKFQGRVTMTADRSTSTAYMELSSLRSEDTAVYYCAREVPETAAFEYWGQGTLVTVSS
VL: QSVLTQPPSVSGAPGQRVTISCTSSSSDIGAGLGVHWYQQLPGTAPKLLIEGYYNRPSGVPDRFSGSKSGTSASLTITGLLPEDEGDYYCQSYDGTLSALFGGGTKLTVLG
notes: human IgG1, lambda
B15: 320-491 (antibody, human IgG1, name in Kabat numbering, V domains shown)
VH: QVQLVQSGAEVKKPGASVKVSCKASGYTFTSYDINWVRQAPGQGLEWMGWSNPNSGNTGYAQKFQGRVTMTADRSTSTAYMELSSLRSEDTAVYYCAREVPETAAFEYWGQGTLVTVSS
VL: QSVLTQPPSVSGAPGQRVTISCTSSSSDIGAGLGVHWYQQLPGTAPKLLIEGYYNRPSGVPDRFSGSKSGTSASLTITGLLPEDEGDYYCQSYDGTLSALFGGGTKLTVLG
notes: human IgG1, lambda

Experiments:
[1] = molecular target: T1, human TL1A extracellular domain with …; assay: SPR Run 6, purified Ab captured on Protein A, TL1A 5 ug/mL, timepoint 44
Source text: (§1) 1.5. Antibody expression and antigen binding as determined by SPR. Using a CM5 sensor chip (GE Healthcare) Protein A (Pierce) was coupled to the chip surface using an amine coupling kit (GE Healthcare). Protein A was coupled on flow cell 1 and 2 (or alternatively 3 and 4) using a BIACORE® T200. […] The amount of supernatant or purified protein (as well as the concentration) injected during the capture stage varied between runs and is specified in the header of the Tables 3-11. At the end of injection of the supernatant or purified antibody the change in response units was measured. This value was reported as Capture Level in Tables 3-11. […] The response units were measured prior to the end of the dissociation phase. […] The sensorgrams were double referenced (flow cell 2 is subtracted from flow cell 1 and a buffer blank). As there were a large number of antibody variants to screen, these were screened across different runs (Tables 3-11). […] A summary of the conditions used in each run is below:
(§2) 2.1. […] In some experiment the antibodies were purified using Protein A chromatography (See 1.4) and purified antibodies were used in BIACORE® (GE Healthcare) experiments.

[2] = molecular target: T2, human TL1A extracellular domain with N-terminal HIS and FLAG tag (human); assay: cell-based or functional assay
[3] = molecular target: T1, human TL1A extracellular domain with …; assay: SPR Run 6, purified Ab captured on Protein A, TL1A 5 ug/mL, timepoint 170
Source text: as §1, §2

| Binder | TL1A Binding Level (Early) [1] [RU] | Antibody IC50, TL1A induced caspase potency assay in TF-1 cells [2] [µg/mL] | Fold improvement over 320-179, TL1A induced caspase potency assay in TF-1 cells [2] [fold] | TL1A Binding Level (Late) [3] [RU] |
| --- | --- | --- | --- | --- |
| B1 | 114 | 0.06 | 1 | 103 |
| B2 | 128 |  |  | 118 |
| B3 | 61 |  |  | 54 |
| B4 | 130 | 0.03 | 2 | 124 |
| B5 | 44 |  |  | 24 |
| B6 | 69 |  |  | 61 |
| B7 | 116 | 0.03 | 2 | 106 |
| B8 | 69 |  |  | 55 |
| B9 | 14 |  |  | 8 |
| B10 | 85 |  |  | 77 |
| B11 | 23 |  |  | 10 |
| B12 | 148 | 0.03 | 1 | 136 |
| B13 | 102 | 0.02 | 3 | 101 |
| B14 | 79 |  |  | 73 |
| B15 | 85 |  |  | 76 |
